In patent EP4671273A1:

What was measured:
[1] = target: hPD-1 expressed on Jurkat cells (human) (UniProt Q15116); test: flow cytometry on Jurkat PD-1 cells, competitor pembrolizumab at 100x molar excess
[2] = target: hPD-1 expressed on Jurkat cells (human) (UniProt Q15116); test: flow cytometry on Jurkat PD-1 cells, competitor nivolumab at 100x molar excess

Sequence of hPD-1 expressed on Jurkat cells (human) (Q15116 25-288): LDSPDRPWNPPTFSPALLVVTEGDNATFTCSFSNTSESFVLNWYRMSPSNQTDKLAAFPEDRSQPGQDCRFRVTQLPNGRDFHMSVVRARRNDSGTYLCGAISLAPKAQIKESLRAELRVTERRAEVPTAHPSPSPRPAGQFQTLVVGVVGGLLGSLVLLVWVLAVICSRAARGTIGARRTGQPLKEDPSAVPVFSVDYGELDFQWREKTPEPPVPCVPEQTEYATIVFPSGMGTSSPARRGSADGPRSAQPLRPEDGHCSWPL

signal inhibition in % [1]: 8.66% | signal inhibition in % [2]: 8.66%
B1: XVT458-z2-m6 (antibody, human IgG1, V domains shown)
VH: VQLVQSGAEVKKPGASVKVSCKASGYTFTNFYIHWVRQAPGQGLEWMGSIYPNYGITAYNQKFKDRVTMTVDTSTSTAYMELRSLRSDDTAVYYCARGYSYAMDYWGQGTTVTVSS
VL: DIQMTQSPSSVSASVGDRVTITCSASQGISGDLNWYQQKPGKAPKLLIYHTSQLHSDVPSRFSGSGSGTDFTLTISSLQPEDFATYYCQGYSKDLLTFGGGTKLEIK
